Source: patent publication US20250019454A1 (BIOCYTOGEN PHARMACEUTICALS BEIJING, published 2025)
Positions count from the first letter of the chain named.

T1: ΔCRD3-TNFR2 protein (with CRD3 deletion), on CHO-S cells (human, UniProt P20333 23-461)
T1 construct: also called CHO-SΔCRD3-TNFR2; TNFR2 lacking CRD3
T1 sequence: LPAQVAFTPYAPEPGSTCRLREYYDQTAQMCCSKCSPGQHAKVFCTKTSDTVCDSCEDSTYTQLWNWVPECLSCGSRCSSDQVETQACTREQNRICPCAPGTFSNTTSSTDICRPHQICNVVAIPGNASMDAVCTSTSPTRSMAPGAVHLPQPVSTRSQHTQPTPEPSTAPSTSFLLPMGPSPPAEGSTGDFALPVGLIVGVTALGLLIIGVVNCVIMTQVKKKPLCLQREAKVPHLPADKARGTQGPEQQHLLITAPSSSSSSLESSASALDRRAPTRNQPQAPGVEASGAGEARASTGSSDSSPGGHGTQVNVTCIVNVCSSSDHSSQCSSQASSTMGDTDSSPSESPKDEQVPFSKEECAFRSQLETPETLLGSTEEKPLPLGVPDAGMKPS

T2: His-tagged monkey (Crab-eating monkey) TNFR2 (Sino Biological, Cat #: 90102-C08H) (monkey (Crab-eating monkey), UniProt P20333 27-257 (human entry))
T2 construct: Bought protein; also called fTNFR2-His; not shown: His tag
T2 chain: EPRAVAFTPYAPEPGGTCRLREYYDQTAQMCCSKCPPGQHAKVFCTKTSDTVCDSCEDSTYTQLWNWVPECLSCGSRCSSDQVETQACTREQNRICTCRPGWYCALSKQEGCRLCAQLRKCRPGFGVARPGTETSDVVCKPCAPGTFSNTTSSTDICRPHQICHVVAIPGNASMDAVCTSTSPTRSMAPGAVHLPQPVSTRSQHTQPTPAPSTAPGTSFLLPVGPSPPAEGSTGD

T3: human TNFR2 (expressed on cells) (human, UniProt P20333 23-461)
T3 construct: also called hTNFR2; human TNF Receptor 2
T3 sequence: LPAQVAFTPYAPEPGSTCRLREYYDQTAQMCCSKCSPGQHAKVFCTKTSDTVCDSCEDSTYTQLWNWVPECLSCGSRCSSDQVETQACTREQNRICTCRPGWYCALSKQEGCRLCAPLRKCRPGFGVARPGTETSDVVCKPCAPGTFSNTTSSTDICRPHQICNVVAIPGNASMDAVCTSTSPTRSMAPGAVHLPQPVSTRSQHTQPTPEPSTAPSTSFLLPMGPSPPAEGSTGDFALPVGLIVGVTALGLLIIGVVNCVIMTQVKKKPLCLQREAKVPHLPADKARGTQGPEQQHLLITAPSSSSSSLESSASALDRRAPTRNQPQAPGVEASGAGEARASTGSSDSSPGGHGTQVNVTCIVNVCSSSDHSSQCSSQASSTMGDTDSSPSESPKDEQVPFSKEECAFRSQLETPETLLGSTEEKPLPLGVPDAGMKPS

B1: BC-1C3-IgG1 (antibody, V domains shown)
VH: QVQLVESGGGVVHPGKSLRLSCAASGFTFNIYGMHWVRQAPGKGLEWVALISYDGNDKYFADSVKGRFTISRDNSKNTLYLQMNSLRAEDTAVYYCAKAVDTAVVTFFDYWGQGTLVTVSS
VL: EIVMTQSPVTLSVSPGERATLSCRASQSVSSNLAWYQQKPGQAPRLLIYSASTRATGIPARFSGSGSGTEFTLTISSLQSEDLAVYYCQQYSNWPFTFGPGTKVDIK
notes: Human VH/VL joined to the human IgG1 subtype
B2: BC-1A8-IgG1 (antibody, V domains shown)
VH: QVQLQQSGPGLVKPSQTLSLTCAISGDSVSSNSAAWNWIRQSPSRGLEWLGRTYYRSKWYNDYALSVKSRITINPETSKNQFSLQLNSVTPEDTAVYYCAREDGVGGTKDYFDYWGQGTLVTVSS
VL: DIQMTQSPSSLSASVGDRVTITCQASQDIDNYLNWYQQKPGKAPKLLIYDVSNLEIGVPSRFSGSGSGTDFTFTISSLQPEDIATYYCQQYDNLPLTFGQGTRLEIK
notes: Fully human VH/VL joined to the human IgG1 subtype, kappa light chain (RenMab mice)
B3: BC-1F4-IgG1 (antibody, V domains shown)
VH: B2 VH with N32D, A34S, A64T, L65V, E76D
VL: B2 VL with D30S, V51A, I56T, S76N, I83F, Y87F, L96I
notes: as for B1
B4: BC-1F10-IgG1 (antibody, V domains shown)
VH: QVQLQQWGAGLLKPSETLSLICAVYDGSFSGDYWSWIRQPPGKGLEWIGEINHSGSTNYNPSLKSRVTISVDTSKNQFSLKLSSVTAADTAVYYCARGHWNYDYYYGMDVWGQGTTVTVSS
VL: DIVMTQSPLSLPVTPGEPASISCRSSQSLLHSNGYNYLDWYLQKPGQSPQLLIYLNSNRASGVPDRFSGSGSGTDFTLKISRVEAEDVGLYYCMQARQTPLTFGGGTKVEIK
notes: as for B1
B5: BC-1B6-IgG1 (antibody, V domains shown)
VH: QVQLVESGGGVVQPGRSLRLSCAASGFTFSNFGMHWVRQAPGKGLEWVAVIWYEGSDKYYADSVKGRFTISRDNSKNTLYLQMNSLRAEDTAVYYCARDSSWGFLLYGMDVWGQGTTVTVSS
VL: DVVMTQSPLSLPVTLGQPASISCRSSRSLEYSDGNTYLNWFQQRPGQSPRRLIYKVSNRDSGVPDRFSGSGSGTAFTLKISGVEAEDVGVYYCMQGTHWPPTFGGGTKVEIK
notes: as for B1

Target: T1, ΔCRD3-TNFR2 protein (with CRD3 …)
Assay: FACS on CHO-S cells with ΔCRD3-TNFR2, AF647 anti-human IgG Fc secondary
Excerpt: TNFR2 has four cysteine rich domains (CRD). In another experiment, FACS was used to detect the binding of anti-hTNFR2 antibodies to TNFR2 proteins with different structural domains. Secondary antibody (Alexa Fluor® 647 AffiniPure F(ab′) 2 Fragment Goat Anti-Human IgG, Fcγ fragment specific, Jackson ImmunoResearch Laboratories, Inc., Cat #: 151524) was used. The fluorescence-labeled secondary antibody can attach to the Fc region of the anti-hTNFR2 antibodies so that the anti-hTNFR2 antibodies that are bound to the ΔCRD cells can be detected by FACS. Specifically, ΔCRD1-TNFR2 protein (with CRD1 deleteion), ΔCRD2-TNFR2 protein (with CRD2 deleteion), ΔCRD3-TNFR2 protein (with CRD3 deleteion) or ΔCRD4-TNFR2 protein (with CRD4 deleteion) were expressed in CHO-S cells respectively, and then the binding between the cells and different anti-hTNFR2 antibodies was detected.

Question: With B1 as the binder, how does the “positive rate of binding (% of cells)” value read?
Answer: The value was 0.81%.

Question: B2 was tested. Which “positive rate of binding (% of cells)” value did it give?
Answer: Its value is 0.52%.

Question: For B3, which “positive rate of binding (% of cells)” value is on record?
Answer: Its value is 0.47%.

Question: Which “positive rate of binding (% of cells)” value does the source give for B4 here?
Answer: The value was 23.1%.

Target: T2, His-tagged monkey (Crab-eating monkey) …
Assay: SPR Biacore 8K, antibody captured on Protein A chip, fTNFR2-His as analyte
Description: Purified anti-TNFR2 antibodies were diluted to 1 μg/mL and then injected into the Biacore 8K biosensor at 10 μL/min for about 50 seconds to achieve a desired protein density (e.g., about 50 response units (RU)). […] Dissociation was monitored for 600 seconds. The chip was regenerated after the last injection of each titration with Glycine (pH 2.0, 30 μL/min for 30 seconds).
Similar to the aforementioned binding affinity experiment, the binding affinities of the anti-TNFR2 antibodies BC-1B6-IgG1, BC-1C3-IgG1 and BC-1F4-IgG1 to His-tagged monkey (Crab-eating monkey) TNFR2 (fTNFR2-His, Sino Biological, Cat #: 90102-C08H) were measured.

Question: What does the source list for B5?
Answer: Kd: 17.5 nM; koff: 0.00547 s⁻¹; kon: 313000 M⁻¹ s⁻¹

Question: Which results are given for B1?
Answer: Kd: 118 nM; koff: 0.0221 s⁻¹; kon: 187000 M⁻¹ s⁻¹

Question: Which results are given for B3?
Answer: Kd: 20.1 nM; koff: 0.0109 s⁻¹; kon: 541000 M⁻¹ s⁻¹

Target: T3, human TNFR2 (expressed on cells)
Assay: flow cytometry competition, CHO cells with human TNFR2, antibody 0.1565 µg/mL, Biotin-hTNFα 0.5 µg/mL
Description: 30 μl of Biotin-hTNFα (Acro Biosystems, Cat #: TNA-H82E1) was added to each well (with a final concentration of 0.5 μg/mL in each well). The cells with Biotin-hTNFα and the antibodies were incubated at 4° C. for 30 minutes.
The signals for AF647 and PE were determined by flow cytometry (Thermo Attune NX).

Question: With B5 as the binder, how does the “percentage of tested cells that had Streptavidin signals” value (from here on “percentage”) read?
Answer: The value was 82.7%.

Question: B1 was tested. Which “percentage” value did it give?
Answer: Its value is 74.3%.

Question: Which “percentage” value does the source give for B2 here?
Answer: The value was 67.4%.

Question: With B3 as the binder, how does the “percentage” value read?
Answer: Its value is 76.2%.

Question: B4 was tested. Which “percentage” value did it give?
Answer: The value was 55.2%.
